# Experiment: soluble on expression in E. coli; label from the status in PepcDB or PDB records
row,Sequence,soluble on expression in E. coli
1,MQTFNRERLEFALDKRGCTQTKLAELLGITARQVRNYVKDEQIPDLNELANLLEFPVHFFTNDERLPELKSQAVSFRARSRTSKRLEKQALNHSITAFLLNDWLETEFTLSQAVLPDFSDISPEEAAQELRLEWGLGNEPIPNMITLLEVKGVRVFSLSLDTKDIDAFCTWYENHPFVFLNTQKSAERSRFDAAHELGHLIRDKYSMEHSKNSEITEDEPRDIIEKEANAFASAFLMPEAALRLYRHVPITIENLLKIKRRFGVSLVALAYRMHKLGMITDRMYIHNLCPLFAKKKYRTIEPEPMEREISSALRKMLTILKNDGIGIEQIAENLNVSPKDVADLTFGLVERDLNRYRKLRLVK,not soluble
2,MQTLKSDIRNRILSAAKEQFMQRGYLKTSMREIADAVDVGVGNLYNYFENKDELFCVILRPVSDALERMLQEHHGAKGADIMLICSEEYLKSAVDEYISLINKHGELMKILLFHSQGSSLETFREDYTNRSTEIVKTWFAEMKEKHPEINVVVSDFMIHLQAVWMFTLFEEMLKHAIDSKEMEYIVHEYILFEIQGWRALLRV,not soluble
3,MQTPSKKYVVDIWSDFVCPWCWIAKRRFENALNRSGMQDDVQVNVRAYRLAANQAPEPMIGALKRKLGNPASADSMMSTVSKYGRADGLDYRFDTMMFGDTADAHILVKAVEDTAVKKRLVEALYEQSTSHGRSLFDRSSLEAIAREVGVSDESIQLAWSSVELRNEMKDDESFAAQLGSGVPLFVFDSSFSVSGAQPDAVFLEALNKMVANSNPEDSSMMGQVCSIDGCKVLEHHHHHH,not soluble
4,MQVSDLFIREMPSDCLPRERLLAIGEKALSNQELLAILLRTGSKEADVMTVAATLLKQFKQLSYLQQATLNELMAIKGIGQVKAIELRAAIELGCRIYQSSQIKFGKVTSSQQVAQRLLQEMKGLQQEHLICIYLNTKNDIIQQKTIFKGSLNQSIAHPREIFREAVKYSSARILLAHNHPSGNPTPSPQDIQFTKRMEECGEMMGIQLLDHIILGDSGYISLREENFFASE,not soluble
5,MQVSRFLTSFHRLSTALPASTEKYYFETVKHDNRNEVVDFLNNNFRVEEPLSKAAGMTESDIQSCFDGVFERVLKNEVSILARSKQSDEIVGCMLNSVWKRNDPKKNEDEAEDFEFGGDRKGVMTIGEILNELHESFWKLRPDQHTVLHFEISSVNKNHQRQGLASKFMNWTEKKELLKVIEASSIVAEASSLANQILLSKRGYETVASTLLSSRIDVNGKQILVCDDGTDRVDLVFKELN,not soluble
6,MQYHEPVWIPAHLTTGEPDSFAAFTLEERLPAILDNLANHADARTDQALQQLAVEIREGEITPLPPVILGLFDQVIKPYTGRRWTDMPFLTVELYFYARILLAFGHTATTLVDPFHPIKNTVSLQAIESLTTMTGYCDSDCDITGLLRWSMTGNTADLSQQVVTDAGQISLLVDESYVAGGLFDSGLNRIDFVFDNAGMDVLTDLLLILRISRHCSRIVAHVRPWPMFVSDVTMTDMKYLIRKLVTSSIPAAKKLGEDITQLLHQNRLIFRSSSALGLPVCFCEEEALTRETFENTELVIFKGDLNYRYFVGDRRWPHTMEKRYFFERFSQPAICLRTLKSEVLVGLPADIATRTLHLQPDWLTSGRYGIIQVFAHMAGDPNSLEHHHHHH,not soluble
7,MRACLKCKYLTNDEICPICHSPTSENWIGLLIVINPEKSEIAKKAGIDIKGKYALSVKE,soluble
8,MRAELWQEQRLQLSLTKELVQAIELLQYSAADLEAFLYEQSLENPFLEIRRTRVRQRPSRTERDQKQWLENIGARAETLVGHLLSQLPALKLGDREERIVRYLIASLDEDGYLRVPLAELAARFSASEQEMERGLRLVQSLDPPGVGARDLAECLLLQLERLPERDELAETIVRYHFVPFAEKSWKTLAKQLGVSLGELQRVFELIRTLEPRPGIHYSSETLPLVVPDVIVTRGADGDWMAAYNDDIHPELGWNRDYERRIAASGDRHAEQFIKEKYRQFTWLAKSLEQRKQTLLHLMAVIIDRQRSCLEFGLSALKPMTMREVAEELGVHESTVSRAVRHKYVQTPFGTVELRRFFSNAATAAGDEAASSAHVKAIMEALISEEDRRAPLSDQQLADLLRDRYGIAISRRTVAKYREQLRIPSSAKRRQYIGLP,not soluble
9,MRAFYSTTEEISALFAKQQEQLKTMQRTLEDEDNCDNTSLDIDLNPINRSPNRANTQGDKRATSHLNFAARASSSTSGQRSTRNEVVDTSCEDADATQKHDCEIMSQEGQNTQEAEYPSSDKVAKGGFGSDIEGIGTAPTSGTDPVGTEQVNETQSPGNDYERNDHLRKSIILAGDTMQIDCETQVHESVQIEGAVLLLRNPNDRRDTQDIEGVGTIGTSDLLASEVAGSWANSTNPSVHGENETERSREDEESQTQKIKEVTIVQDSAGQIGESQTKPTSPGVLVTNKDDAERGVINEPVGITDQGKIKHGTRSDSETESCSDSDDDHEKEKHNPVSDSDTEGSDMNDDKGSLSSDPDTERSHEVDGDQKKQVDTMDEDDKAT,soluble
10,MRANLGVPSTIAQSRWAESATSFPTATVAAAGGKDIEIERDVAHNQPGGIFPNVIFLESLDFSACFVDAHQVFVSDGSVMFRRWDRQKKTGRKK,not soluble
11,MRAVVLVPFLKQQRENRDAASAPAAPGRSVEAKLEEAKGLALAIDLEVTQGLVVPVNQPRPATLFGTGKIEEIGHLLDETNSGLVIVDHPLTPVQQRNLEKQWNAKVIDRTGLILEIFGRRASTKEGTLQVDLAHLNYQKGRLVRSWTHLERQRGGAGFMGGPGETQIEADRRLLQDRIVKLEKELEQVVRTRQLHRAKRRKVPHPIVALVGYTNAGKSTLFNRITGAGVLAEDMLFATLDPTLRRMKLPHGRTVILSDTVGFISDLPTHLVAAFRATLEEVLEA,not soluble
12,MRDAALRYPNILFDLDGTLTDPREGITRSVQFALARLGIDEPDLARLEHFIGPPLLQCFMQTYGFDEARAWEAVNHYRERFRVTGLYENRVFDGIPELLEALVGRGHTLYVATSKPGVFAREIARHFAFDRHFKAIYGSELDGTRTHKEELIRHLLDSEGLAAEHCLMIGDRMHDLLGASRNGVACIGVGYGFGSEDELRAHQPTHYCADLAALRQVLESH,not soluble
13,MRDALHVTADDADATDDAIPDSRETGVTGVVLAGGLSTRLGHDKAVIRLHGEQGPDLLVRTAALLEPLVDEVWISCRPGRCVTGPYLRIYDEVQGLGPFGGVMTALRAAQGPVLVLSCDLPFMERTLLERLLERRGARHPEALMTTFRQEETGFIESLVAVYEYACLPFFEDALTDGVHKLSRVIPAERREDIVYTQNEALPFFNVNYPADLEMARRIIGALLEHHHHHH,not soluble
14,MRDGEGIWGRGRTGGHAHPKEAMHTTFFILGGTMLIGVISDTHLYDRAFELPKAVFDEFSNVDLIIHCGDVTDKEILDSLKDLAKVVAVKGNMDYLNLPRKEILEINDIKIGVIHGDVVYPRGDRLKLRLLGKEMGVDVLISGHTHTPFIDDCRDILLLNPGSPTVPRCPLKSIMKLSVEDKLEAKLIPIEE,soluble
15,MRDNASLAHTQWNCKYHIVFAPKYRRQVIYGKIKKDIGQILRKLCEMKGVEIIEASLCPDHIHMLVSIPPKISVSSFMGYLKGKSSLMIFNRHANLKYKYGNRHFWCRGYYVDTVGRNRKAIEQYIRRQLQEDIASDQISLNEYIDPFTGERVNKSKK,not soluble
16,MRDPFMEALGLKVLHLAPGEAVVAGEVRADHLNLHGTAHGGFLYALADSAFALASNTRGPAVALSCRMDYFRPLGAGARVEARAVEVNLSRRTATYRVEVVSEGKLVALFTGTVFRLGGDGDDVPAGTGNLAPREA,soluble
17,MRDTIPVTILSGSLGAGKTTLLNHLLTEAGDRDIAVLVNDMGTVNVDAELIAEGSELDVDDGVAELSNGCICCELQDDLETAVVRLADDRDFDALVVESSGISEPAPVARLFTTESRVAALYRVDTLVTVLDTRLFLDSFAGETPERRGSGEASADGDGDDTEADGADRPLSDLMVEQVELSNLVVLNKTDLCTDEEMDEAEELVRALQPDAETIRTTFSQVDPDRLFDRALFDQTEISDLPGWKRALAESGHGHGEGSHDHGGDSHETDAHEGDTGHGHDDHHHPEEVYGVTSFTYRRRRPFHPDRLAEVLQDLPSGVVRSKGTVWLAGSERRVVIGQAGPSIRAEAQGPWIASLPEVEQDMYRSNRPELDWHDEHGDRRTELVFIGTDYDESALRTALDDALVTDEEWTESESLTGPFPAEQGEEAVIRSP,not soluble
18,MREKWRKKRMRRLKRKRRAAKK,not soluble
19,MREVISIHVGQAGVQIGNACWELYCLEHGILPDGTSMEPDGNSGSLGTFFSDTGYGRHVPRSIFVDLEPTVVDEIRTGAYKKLFHPEQMLTGKEDAANNYARGHYTVGKEIIDTTLDRIRRLANNCEGLQGFFVFHSFGGGTGSGFTSMLMERLSAEYGKKSKLEFSIYPAPQISTSVVEPYNSILTTHTTLEHSDCSFMVDNEAIYDICRRNLRVSRPTYNNLNRIISQVVSSITASLRFDGALNVDLNEFQTNLVPYPRIHFPLVAYNPLISSAHHEFLSVDEITKSCFEASNQMVKCDPKHGKYMAVCLLYRGDVVPKDVSAAIKSIKTQRSVQFVDWCPTGFKVGLNYQPPTVIPGGDMAKVPRAVCMLSNTTAIAEAWQRLDYKFDLMYAKRAFVHWYVGEGMEEGEFSEAREDLAALEKDYEEVGADSDANDNGDDEY,not soluble
20,MRFIHTSDWHLGKSLEGHSRIEEQAKFCEEFIKIVESNEIDMVIIAGDVYDTSNPPAQAEKLFYQTVSRLANNGQRCVLIISGNHDNPERLSAITPLAHEQGILIYGYPLSATIEAKYKGFEITYATQGCTKLNINGENIVVATLPYPSEKRLNEVFSSEDEFEKQKNYSEKVGDIFRSLEENFRSDTINIAVSHIFVIGGESTESERPIQLGGSFLVERKDLPEKAQYTALGHLHKQQKASERLNAYYSGSPLQYSKDERAYTKGAYIVDIKAGEKPIIEDVYFNNYKPIEVFKCNGIEEALDICEQNQDREIWSYFEINTDEIISQNEIKKMKELLKDIIEIKPIITSCYEQESVDIKEKSMAELFREFYSFSKGVEPKGELMDLFLDIISEEGESADETN,not soluble
21,MRFLFSLIGLVYSSLIKLAVPFNPKARMMVRGRWKVWRQLREGIVPGGRYIWFHAASLGEFEQGRPMIERIRSEYPDYRIVLTFFSPSGYEVRKNYEGADVIVYLPADRLPRVRKFLDLVKPEMAIFIKYDFWPCFLTELERRQIPTYLVSSIFRPSQLFFRWYGGAYKRLLHCFTHIFVQDKASRLLLEKHGIDHVSVAGDTRFDRVISVYEARKSLPLIERFAASVPEDGLVIVGGSSWPPDEEILVRYFNRNPKIKLILAPHEIDKEHLLQIISHIRRPFIRLSEATESDIARQDCLIVDSFGLLSSIYRYGQVAFIGGGFGKGIHNTPEAAVYGIPVIFGPRYEKFKEARELIDVGGGFSVSSAEEFGNLIKRIQTDKAYRDAASRAAADYIRSNAGATGYIVHRIMKLEHHHHHH,soluble
22,MRFQYQALLNEHQSQLDRFSSHIVATLDKYAHIPHLISKDKELVDALLSAQNSAQIDITNRYLEQVNEVIQAADTYLIDRFGNTIASSNWNLDRSFIGRNFAWRPYFYLSIAGQKSQYFALGSTSGQRGYYYAYPVIYAAEILGVIVVKMDLSAIEQGWQNKSSYFVATDDHQVVFMSSQPAWLFHSVADLSPAQLNDIRQSQQYLDSPIPSLGWQGDLQAEQSEWRKPEKHWLQDDYIVSSRPLPELALTIRVLSPKIE,soluble
23,MRFVFDIDGTLCFDGRLIDQTIIDTLLQLQHDGHELIFASARPIRDLLPVLPSVFHQHTLIGANGAMISQQSKISVIKPIHTDTYHHILKIIQKYELDYIIDDDWNYAAQLDAENAIFERLDPHKLASCIDVANIDTPIKIILLNIDPAQITTILDELNKYHQELEMIHHSNEYNIDITAQNINKYTALQYIFDADVKYIAFGNDHNDIFMLQHASSGYIIGPSEAYTHAILKLDKIKHINNNTQAICKVLKSYK,not soluble

# — the DeepSol protein solubility set
